The target of one data set is M1-linked diUb (UniProt P0CG48). The data set can be described thus: ITC.
A further data set concerns the target monoUb (UniProt P0CG48 1-76). The data set can be described thus: ITC.
The data set “SEC” concerns the molecule itself. The data set can be described thus: SEC.
Data set [1] concerns the molecule itself. Nature of the data set: Western blot of lysate under non-denaturing conditions. In general terms: In western blotting, separated proteins are transferred to a membrane and probed.

Usually stoichiometry N stands for the number of molecules, sites or subunits per partner or assembly.

Regarding ETSELREALLKIFPDSEQKLKIDQILAAHPYMKDLNALSALVLD (domain or fragment) [isolated N4BP1 CUE domain (residues 850-893) used for ITC, NMR and analytical gel filtration], the binding result with M1-linked diUb, in the data set with monoUb and in “SEC” was “binds” throughout.

B1: mouse N4BP1 (613-893) in cell lysate (dimerization test of Fig. 2B) (domain or fragment)
chain: ADLKHIVIDGSNVAITHGLKKFFSCRGIAIAVEYFWKLGNRNITVFVPQWRTRRDPNITEQHFLTQLQELGILSLTPARMVFGERIASHDDRFLLHLADKTGGIIVTNDNFREFVTESVSWREIITKRLLQYTFVGDIFMVPDDPLGRNGPRLEEFLRKEAFLRHMQPLLNALPSVGTFDPGFRSPSTQVANNSHQPPPRIQTSSSPWLPQQSHFTALATLPSMQQNPPLPAQRSSAETSELREALLKIFPDSEQKLKIDQILAAHPYMKDLNALSALVLD
Turning to B1, the “stoichiometry N” value in data set [1] is 2.

The values are drawn from publication doi:10.1101/2021.11.02.466974 (bioRxiv, 2021).
